Reference: patent US20040018515

Substance | initial rate of fluorescence increase (535 nm) of the ADP NASM FRET assay, reporting ADP yield from ATP hydrolysis (Erk2) | initial rate of fluorescence increase (535 nm) of the ADP NASM FRET assay, reporting ADP yield from ATP hydrolysis (p386)
Mek1 | substantially enhanced fluorescence was observed (Table 17, shaded cells; 150-300 RFU/min) | 
Mek 6 |  | substantially enhanced fluorescence was observed (Table 17, shaded cells; 150-300 RFU/min)
